In the RNAGym collection of RNA variant scans (doi:10.7554/elife.80360):

B1: Hammerhead Ribozyme (parent)
chain: ACCGGAUGUGCUUUCCGGUCUGAUGAGUCCGUGAGGACGAAACAG

Variants of: B1
Experiment: self-cleavage, relative activity (ratio to wild type); higher = more cleavage; co-transcriptional

Variant | self-cleavage
C3G G10A | 0.771
C29G G31U | 0.777
U9A G31A | 0.825
C30A A34U | 0.66
G10C G18A | 1.06
G22C C38A | 0.329
G5C C43A | 0.294
G25A A44U | 0.343
C20U G31A | 0.783
C3A U28G | 0.34
A6C C29G | 0.482
A6C C29U | 0.695
G10U U19C | 0.665
U9C G36U | 0.683
G5C G25U | 0.307
G4A G25C | 0.32
U14A U21C | 0.586
A40U A41C | 0.275
A6G C11G | 0.921
C3A G33U | 0.733
C29U A34C | 0.723
G17A A37U | 0.528
C38U A40C | 0.598
C30G A42C | 0.306

Variant | self-cleavage
C11U A34U | 0.724
C11U A34G | 0.83
C16U A37G | 1.02
A6G U21A | 0.393
G17A U19A | 0.386
A40C A41C | 0.385
C3G C30U | 0.636
A6U G36A | 0.44
C15G U21A | 0.424
C20U A41C | 0.373
C30G G35C | 1.03
U12G C29A | 0.643
C3G G4A | 0.283
G27A A40U | 0.304
A23U | 0.425
C2G A23U | 0.321
G36A C43A | 0.383
G18U G39C | 0.32
A1U U21G | 0.303
C38U A41U | 0.453
G31A G33U | 1.15
G4U A23U | 0.333
C11A A44C | 0.569
C15G G35C | 0.456

Variant | self-cleavage
U14A G27C | 0.661
U21G G22C | 0.292
A6C G39C | 0.368
G8C G18A | 0.509
C2A C16G | 0.363
C29G G36A | 0.66
G4U C38U | 0.315
C11U G17A | 0.475
C20U G25A | 0.756
G31C U32A | 0.908
U12C U13C | 1.13
U9C A44G | 1.32
G4A C43A | 0.313
U14A A41C | 0.302
G27C A34G | 0.653
A34G G36A | 0.51
C20A G25U | 0.619
G8C U13G | 1.19
U19G A34G | 0.345
U7C G8A | 0.95
U19A A42U | 0.378
G4C A6C | 0.251
C29A C43G | 0.348
G8A G36C | 0.508

Variant | self-cleavage
C29G C43U | 0.328
G22A U24C | 0.311
U7G G31A | 1.25
C3A U7C | 0.386
G35A G45U | 0.471
G5U A34G | 0.882
G8U C38A | 0.774
U7G C43G | 0.427
C15A C20A | 0.316
A23C A34U | 0.298
G36U G45A | 0.452
G27U U32G | 0.417
A26C G33U | 0.774
A26C G33C | 0.559
C2A C20U | 0.372
C38A G45A | 0.464
G17A G36A | 0.442
G22U A26U | 0.315
U13C G27C | 0.985
G39U C43A | 0.312
G5C C30U | 0.539
U7G G27A | 0.81
G35U C43U | 0.43
A6U G10U | 0.747

Variant | self-cleavage
U13C G18C | 0.842
U9C U28C | 1.08
C29U A40U | 0.28
C3A G39U | 0.235
A23U C29U | 0.322
C29A A34G | 0.518
C20G G31U | 0.356
G33A C43A | 0.369
U12C C15A | 0.565
C15G G22U | 0.352
C20G A40U | 0.355
G33U G45U | 0.912
C29A A40U | 0.314
G18U U19G | 0.291
G17U A26C | 0.448
A1G C2U | 2.07
C3U U14G | 0.78
U12G A44U | 0.565
U12G A44C | 0.499
G18U C29G | 0.575
G27U U28G | 0.507
C15G G36C | 0.284
C2A A6U | 0.331
C43A | 0.375

Variant | self-cleavage
C11A G17A | 0.717
C2A C3U | 0.312
C2A C3A | 0.476
U21A U28G | 0.392
A6C G27A | 0.56
G5U U7G | 0.708
G5C U14G | 0.929
A6U C38A | 0.511
A1G G35U | 0.947
A26G C30U | 0.404
A1G G18A | 0.906
A1G G18U | 0.894
C16U G17C | 0.551
A23G A40U | 0.326
C2U U19C | 0.531
G5A A34G | 1.2
G10U U32C | 0.694
U24C C29A | 0.416
C16A U24C | 1.33
C16A U24A | 1.34
C2U A26U | 0.89
U14G C16U | 0.849
U32G C38G | 0.497
A26U G31A | 0.738

Variant | self-cleavage
G5A G36A | 0.667
G18A C20U | 0.312
C2A G35U | 0.457
G4C U9G | 0.573
G4C U9C | 0.704
A23C G39A | 0.298
G8U G25U | 0.391
A1G A41G | 0.436
U7G C29A | 0.642
G8U C15A | 0.884
U21C A44C | 0.454
G10U A37G | 0.877
C2G G8C | 0.302
A6U G17U | 0.465
G18U A23U | 0.342
U7A U9A | 0.874
C3A A37G | 0.539
G4C C38U | 0.643
G4C C38G | 0.346
G4C A26U | 0.427
U28G A44G | 0.673
C3G A44G | 0.667
U7G U13A | 1.66
